The supplement of paper PMC9112550, “Optimization of the antimicrobial peptide Bac7 by deep mutational scanning” (BMC Biology, 2022)

System: Escherichia coli TOP10
Test: shrunken log2 fold change of peptide-encoding DNA abundance (4.5 h post-induction vs induction); higher = less antimicrobial activity (less host growth inhibition)
Conditions: time post-induction: 4.5 h; library: site-saturation at positions 5, 18, 19, 20
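Note: peptides expressed intracellularly from a pBAD plasmid library in pooled LB shake-flask culture, induced with 0.3% L-arabinose, DNA abundance read by NGS, three biological replicates, DESeq2 with apeglm shrinkage.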

| Sequence | shrunken log2 fold change |
| --- | --- |
| RRIRDRPPRLPRPRPRPCLNPRP | 0.0235 |
| RRIRARPPRLPRPRPRPMMIPRP | 0.313 |
| RRIRMRPPRLPRPRPRPGTFPRP | -0.0326 |
| RRIRIRPPRLPRPRPRPWCFPRP | -0.596 |
| RRIRNRPPRLPRPRPRPSWNPRP | -0.191 |
| RRIRKRPPRLPRPRPRPCQWPRP | -0.0983 |
| RRIRHRPPRLPRPRPRPEHRPRP | -0.137 |
| RRIRNRPPRLPRPRPRPSCVPRP | -0.599 |
| RRIRYRPPRLPRPRPRPVTLPRP | -0.713 |
| RRIRLRPPRLPRPRPRPVQEPRP | -0.0609 |
| RRIRIRPPRLPRPRPRPIWYPRP | -1.64 |
| RRIRYRPPRLPRPRPRPKNMPRP | -0.477 |
| RRIRGRPPRLPRPRPRPQVWPRP | 0.846 |
| RRIRQRPPRLPRPRPRPAYLPRP | 0.0774 |
| RRIRKRPPRLPRPRPRPIDIPRP | 0.00848 |
| RRIRHRPPRLPRPRPRPQWRPRP | 0.324 |
| RRIRHRPPRLPRPRPRPCDFPRP | -0.0501 |
| RRIRCRPPRLPRPRPRPDCEPRP | -0.0299 |
| RRIRTRPPRLPRPRPRPTNEPRP | -0.261 |
| RRIRCRPPRLPRPRPRPRACPRP | 0.24 |
| RRIRCRPPRLPRPRPRPATIPRP | -0.55 |
| RRIRPRPPRLPRPRPRPASEPRP | 0.0613 |
| RRIRMRPPRLPRPRPRPQPYPRP | -0.00544 |
| RRIRARPPRLPRPRPRPWFAPRP | 0.212 |
| RRIRTRPPRLPRPRPRPKWKPRP | -0.0786 |

| Sequence | shrunken log2 fold change |
| --- | --- |
| RRIRYRPPRLPRPRPRPSLMPRP | -0.556 |
| RRIRGRPPRLPRPRPRPFRGPRP | -0.0655 |
| RRIRCRPPRLPRPRPRPPLSPRP | 0.312 |
| RRIRHRPPRLPRPRPRPFFKPRP | -0.149 |
| RRIRGRPPRLPRPRPRPWRQPRP | 0.0568 |
| RRIRMRPPRLPRPRPRPTVTPRP | 0.307 |
| RRIRLRPPRLPRPRPRPQHEPRP | -0.0398 |
| RRIRKRPPRLPRPRPRPGEEPRP | 0.108 |
| RRIRIRPPRLPRPRPRPTTVPRP | -0.319 |
| RRIRYRPPRLPRPRPRPQNVPRP | -0.389 |
| RRIRDRPPRLPRPRPRPWIYPRP | -0.304 |
| RRIRWRPPRLPRPRPRPDFRPRP | 0.169 |
| RRIRHRPPRLPRPRPRPCCIPRP | -0.0109 |
| RRIRMRPPRLPRPRPRPYCKPRP | -1.02 |
| RRIRFRPPRLPRPRPRPDDEPRP | 0.066 |
| RRIRMRPPRLPRPRPRPDGMPRP | 1.73 |
| RRIRERPPRLPRPRPRPRHLPRP | -0.427 |
| RRIRGRPPRLPRPRPRPHPEPRP | 0.513 |
| RRIRFRPPRLPRPRPRPHDVPRP | -0.00911 |
| RRIRCRPPRLPRPRPRPMFVPRP | -0.261 |
| RRIRMRPPRLPRPRPRPKGHPRP | 0.0377 |
| RRIRLRPPRLPRPRPRPHRFPRP | 0.0608 |
| RRIRQRPPRLPRPRPRPKHIPRP | -0.456 |
| RRIRWRPPRLPRPRPRPIIHPRP | -0.463 |
| RRIRTRPPRLPRPRPRPASPPRP | 0.209 |

| Sequence | shrunken log2 fold change |
| --- | --- |
| RRIRQRPPRLPRPRPRPACRPRP | -0.0513 |
| RRIRSRPPRLPRPRPRPNHTPRP | -0.444 |
| RRIRLRPPRLPRPRPRPNDQPRP | -0.19 |
| RRIRQRPPRLPRPRPRPIWLPRP | 0.66 |
| RRIRMRPPRLPRPRPRPYFQPRP | -0.759 |
| RRIRTRPPRLPRPRPRPTHNPRP | 0.0318 |
| RRIRNRPPRLPRPRPRPCRRPRP | -0.103 |
| RRIRKRPPRLPRPRPRPLMWPRP | 0.284 |
| RRIRVRPPRLPRPRPRPVGHPRP | -0.166 |
| RRIRIRPPRLPRPRPRPRQIPRP | -0.212 |
| RRIRQRPPRLPRPRPRPPYMPRP | -0.184 |
| RRIRFRPPRLPRPRPRPRWIPRP | 0.0967 |
| RRIRGRPPRLPRPRPRPVLYPRP | 0.069 |
| RRIRTRPPRLPRPRPRPYLEPRP | -0.573 |
| RRIRGRPPRLPRPRPRPRLWPRP | 1.36 |
| RRIRMRPPRLPRPRPRPNTWPRP | 0.454 |
| RRIRFRPPRLPRPRPRPLLVPRP | 0.0528 |
| RRIRYRPPRLPRPRPRPGIIPRP | -0.0361 |
| RRIRCRPPRLPRPRPRPRAQPRP | 0.4 |
| RRIRNRPPRLPRPRPRPEKYPRP | -0.805 |
| RRIRGRPPRLPRPRPRPRKHPRP | 0.632 |
| RRIRHRPPRLPRPRPRPRRAPRP | 0.21 |
| RRIRHRPPRLPRPRPRPLIHPRP | -0.575 |
| RRIRTRPPRLPRPRPRPLWRPRP | 0.00366 |
| RRIRYRPPRLPRPRPRPSKGPRP | -0.203 |

| Sequence | shrunken log2 fold change |
| --- | --- |
| RRIRCRPPRLPRPRPRPEQAPRP | 0.219 |
| RRIRRRPPRLPRPRPRPSVPPRP | 0.063 |
| RRIRYRPPRLPRPRPRPDFSPRP | 0.0939 |
| RRIRTRPPRLPRPRPRPNKTPRP | -0.0171 |
| RRIRWRPPRLPRPRPRPAMGPRP | 0.161 |
| RRIRFRPPRLPRPRPRPAFCPRP | 0.0477 |
| RRIRIRPPRLPRPRPRPQLNPRP | -0.499 |
| RRIRLRPPRLPRPRPRPLYMPRP | -0.763 |
| RRIRNRPPRLPRPRPRPMVGPRP | -0.0679 |
| RRIRWRPPRLPRPRPRPFYFPRP | 0.0389 |
| RRIRTRPPRLPRPRPRPRNCPRP | -0.176 |
| RRIRFRPPRLPRPRPRPEPYPRP | 0.0129 |
| RRIRCRPPRLPRPRPRPNAVPRP | 0.0238 |
| RRIRVRPPRLPRPRPRPMYDPRP | -0.0887 |
| RRIRVRPPRLPRPRPRPSMMPRP | -0.888 |
| RRIRSRPPRLPRPRPRPYLNPRP | -0.564 |
| RRIRKRPPRLPRPRPRPMVWPRP | 0.722 |
| RRIRCRPPRLPRPRPRPTYVPRP | -0.259 |
| RRIRDRPPRLPRPRPRPMCAPRP | 0.0829 |
| RRIRIRPPRLPRPRPRPQIRPRP | -0.64 |
| RRIRNRPPRLPRPRPRPAEKPRP | 0.0519 |
| RRIRRRPPRLPRPRPRPLVEPRP | 0.116 |
| RRIRNRPPRLPRPRPRPQDAPRP | -0.131 |
| RRIRPRPPRLPRPRPRPSTDPRP | -0.207 |
| RRIRLRPPRLPRPRPRPWYNPRP | 0.111 |

| Sequence | shrunken log2 fold change |
| --- | --- |
| RRIRWRPPRLPRPRPRPCYKPRP | -0.00556 |
| RRIRIRPPRLPRPRPRPAYQPRP | -0.76 |
| RRIRKRPPRLPRPRPRPVEFPRP | 0.192 |
| RRIRTRPPRLPRPRPRPFTLPRP | -0.312 |
| RRIRARPPRLPRPRPRPQHRPRP | -0.281 |
| RRIRMRPPRLPRPRPRPHHAPRP | 0.0324 |
| RRIRCRPPRLPRPRPRPQANPRP | 0.0603 |
| RRIRWRPPRLPRPRPRPLINPRP | -0.229 |
| RRIRIRPPRLPRPRPRPLPVPRP | 0.094 |
| RRIRHRPPRLPRPRPRPIMRPRP | -0.0864 |
| RRIRCRPPRLPRPRPRPWYHPRP | -0.392 |
| RRIRTRPPRLPRPRPRPKSTPRP | 0.0437 |
| RRIRTRPPRLPRPRPRPKANPRP | -0.00404 |
| RRIRFRPPRLPRPRPRPFEYPRP | -0.281 |
| RRIRLRPPRLPRPRPRPNQNPRP | -0.276 |
| RRIRVRPPRLPRPRPRPQQQPRP | 0.0503 |
| RRIRQRPPRLPRPRPRPQHEPRP | 0.119 |
| RRIRMRPPRLPRPRPRPGDEPRP | 0.818 |
| RRIRRRPPRLPRPRPRPCSDPRP | 0.00368 |
| RRIRNRPPRLPRPRPRPKMAPRP | -0.00757 |
| RRIRRRPPRLPRPRPRPLVNPRP | 0.0359 |
| RRIRNRPPRLPRPRPRPWNSPRP | -0.281 |
| RRIRLRPPRLPRPRPRPKVYPRP | -0.0494 |
| RRIRKRPPRLPRPRPRPEKIPRP | 0.185 |
| RRIRVRPPRLPRPRPRPLIYPRP | -0.632 |

| Sequence | shrunken log2 fold change |
| --- | --- |
| RRIRLRPPRLPRPRPRPHMKPRP | -0.024 |
| RRIRFRPPRLPRPRPRPNNRPRP | -0.139 |
| RRIRDRPPRLPRPRPRPWLAPRP | 0.171 |
| RRIRVRPPRLPRPRPRPPNMPRP | -0.316 |
| RRIRDRPPRLPRPRPRPEDVPRP | -0.0018 |
| RRIRNRPPRLPRPRPRPLTRPRP | 0.0454 |
| RRIRSRPPRLPRPRPRPHWDPRP | 0.00395 |
| RRIRFRPPRLPRPRPRPARDPRP | 0.732 |
| RRIRFRPPRLPRPRPRPNFPPRP | -0.254 |
| RRIRKRPPRLPRPRPRPQQKPRP | 0.206 |
| RRIRDRPPRLPRPRPRPDWCPRP | 0.163 |
| RRIRLRPPRLPRPRPRPANAPRP | 0.0811 |
| RRIRGRPPRLPRPRPRPWLEPRP | 0.303 |
| RRIRERPPRLPRPRPRPTGDPRP | 0.321 |
| RRIRKRPPRLPRPRPRPLRLPRP | 1.16 |
| RRIRLRPPRLPRPRPRPHIYPRP | -0.297 |
| RRIRQRPPRLPRPRPRPLCYPRP | -0.383 |
| RRIRWRPPRLPRPRPRPACVPRP | 0.347 |
| RRIRKRPPRLPRPRPRPTRYPRP | 0.438 |
| RRIRIRPPRLPRPRPRPVVNPRP | -0.356 |
| RRIRWRPPRLPRPRPRPNVFPRP | -0.304 |
| RRIRARPPRLPRPRPRPTQEPRP | 0.0329 |
| RRIRYRPPRLPRPRPRPAFLPRP | -0.365 |
| RRIRCRPPRLPRPRPRPDMDPRP | -0.00476 |
| RRIRFRPPRLPRPRPRPFDGPRP | -0.251 |
